Data as given in PMC11531844.

Molecular target: Rluc-tagged smAKAP, a peptide derived from an RI-specific AKAP
Assay: Renilla luciferase (Rluc) protein-fragment complementation assay (PCA)
Settings: bar labelled L50R:smAKAP; parent: est. 13; read off a plot

- response: 1.5 RLU 10^4
Substance: Rluc-tagged RIβ WT (Renilla luciferase protein-fragment complementation hybrid protein) (from UniProt P31321) L50R
